Literature values in article PMC2864607.
Like-named read-outs stand apart in the source and are kept apart here.

Experiments:
His49 = His49 (UniProt position 49, PGIICHLDDPK)
His318 = His318 (UniProt position 320, VSSTWHWTGHN)
His322 = His322 (UniProt position 324, WHWTGHNVKHK)
His326 = His326 (UniProt position 328, GHNVKHKSAIV)
His451 = His451 (UniProt position 451, EASGCHYGVLT)
His203 = His203 (UniProt position 203, LTPHRHRVSAI)
[1] = test system: His2 (position 2, ----GHG----); test: NMR; settings: 25 °C; 0.02 M NaCl; Free model peptide
[2] = biological target: His3 (position 3, ---KSHPE---); test: NMR; settings: 25 °C, 0.02 M NaCl, Free model peptide
[3] = biological target: His3 (position 3, ---FKHLK---); test: NMR; settings: 25 °C; 0.02 M NaCl; Free model peptide
[4] = Protein bound specifically to its cognate DNA recognition sequence

Molecule: TATA-binding protein (PwTBP) (Pyrococcus woesei)
- pKa (His49; [4]): 7.2
- pKa (His49; Unbound protein (no DNA)): 6.2

Molecule: E2 protein C-terminal DNA-binding domain (E2C) (Human papillomavirus type 16)
- pKa (His318; [4]): 7.8
- pKa (His318; Unbound protein (no DNA)): 6.7
- pKa (His322; [4]): 6.3
- pKa (His322; Unbound protein (no DNA)): 6.3
- pKa (His326; [4]): 6.2
- pKa (His326; Unbound protein (no DNA)): 6.2

Molecule: Glucocorticoid receptor (DNA-binding domain) (Rattus norvegicus)
- pKa (His451; [4]): 7.9
- pKa (His451; Unbound protein (no DNA)): 5.9

Molecule: Large T antigen origin-binding domain (T-ag-obd) (Simian virus 40)
- pKa (His203; [4]): >8
- pKa (His203; Unbound protein (no DNA)): ~5

Molecule: GHG model tripeptide (Gly-His-Gly) (synthetic)
- pKa [1]: 6.68 ± 0.02

B1: KSHPE model peptide (myoglobin-derived) (synthetic (sequence from Physeter macrocephalus myoglobin)) (peptide)
chain: KSHPE
- pKa ([2]; cis His-Pro isomer): 6.23 ± 0.02
- pKa ([2]; trans His-Pro isomer): 6.69 ± 0.02

B2: FKHLK model peptide (myoglobin-derived) (synthetic (sequence from Physeter macrocephalus myoglobin)) (peptide)
chain: FKHLK
- pKa [3]: 6.16 ± 0.02
